Measured values published in the supplement of paper PMC9876800.

Test system: peptide library, one residue held at a place counted from the S/T acceptor
Experiment: relative phosphorylation of the sub-library (ratio to the mean residue at this position); human; higher = residue favoured
Outline: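 Each biotinylated degenerate peptide sub-library fixed one residue at one position around a central Ser/Thr and was incubated with a purified recombinant kinase, a human or orthologue construct, in 384-well plates. The 90 min reactions, under kinase-specific conditions, contained 50 μM peptide and 50 μM ATP spiked with γ-32P-ATP. Phosphorylation was read by phosphorimaging spots on streptavidin membranes and quantifying them by densitometry. Relative sub-library phosphorylation expresses each value as a ratio to the mean residue at that position.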

Chain of GRK5, construct: Full length (P34947 whole entry, looked up): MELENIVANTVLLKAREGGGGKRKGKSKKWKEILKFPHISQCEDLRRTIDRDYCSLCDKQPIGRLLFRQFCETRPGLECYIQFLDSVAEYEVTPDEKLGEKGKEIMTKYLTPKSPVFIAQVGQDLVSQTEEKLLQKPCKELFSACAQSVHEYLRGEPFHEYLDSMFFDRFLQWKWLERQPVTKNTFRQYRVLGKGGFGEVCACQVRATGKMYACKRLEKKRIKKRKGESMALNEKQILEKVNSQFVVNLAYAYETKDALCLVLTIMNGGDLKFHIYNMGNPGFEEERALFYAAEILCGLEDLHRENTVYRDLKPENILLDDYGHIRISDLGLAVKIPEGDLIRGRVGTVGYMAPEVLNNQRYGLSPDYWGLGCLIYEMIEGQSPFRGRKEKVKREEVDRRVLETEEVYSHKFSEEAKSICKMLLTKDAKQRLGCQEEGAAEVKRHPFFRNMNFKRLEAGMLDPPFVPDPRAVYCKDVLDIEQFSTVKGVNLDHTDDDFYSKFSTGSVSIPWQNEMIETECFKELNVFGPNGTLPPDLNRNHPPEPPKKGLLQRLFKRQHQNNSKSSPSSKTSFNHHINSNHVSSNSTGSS

## GRK5, construct: Full length (from UniProt P34947)
A fixed, at +1
  relative phosphorylation: 0.822
A fixed, at +2
  relative phosphorylation: 1.35
A fixed, at +3
  relative phosphorylation: 0.828
A fixed, at +4
  relative phosphorylation: 0.969
A fixed, at -1
  relative phosphorylation: 0.728
A fixed, at -2
  relative phosphorylation: 0.802
A fixed, at -3
  relative phosphorylation: 0.852
A fixed, at -4
  relative phosphorylation: 1.03
A fixed, at -5
  relative phosphorylation: 1.06
D fixed, at +1
  relative phosphorylation: 0.996
D fixed, at +2
  relative phosphorylation: 1.03
D fixed, at +3
  relative phosphorylation: 1.73
D fixed, at +4
  relative phosphorylation: 1.58
D fixed, at -1
  relative phosphorylation: 1.08
D fixed, at -2
  relative phosphorylation: 0.951
D fixed, at -3
  relative phosphorylation: 1.27
D fixed, at -4
  relative phosphorylation: 1.28
D fixed, at -5
  relative phosphorylation: 1.27
E fixed, at +1
  relative phosphorylation: 2.19
E fixed, at +2
  relative phosphorylation: 0.721
E fixed, at +3
  relative phosphorylation: 1.96
E fixed, at +4
  relative phosphorylation: 1.25
E fixed, at -1
  relative phosphorylation: 0.863
E fixed, at -2
  relative phosphorylation: 1.01
E fixed, at -3
  relative phosphorylation: 1.19
E fixed, at -4
  relative phosphorylation: 1.15
E fixed, at -5
  relative phosphorylation: 1.05
F fixed, at +1
  relative phosphorylation: 0.966
F fixed, at +2
  relative phosphorylation: 0.879
F fixed, at +3
  relative phosphorylation: 1.06
F fixed, at +4
  relative phosphorylation: 0.823
F fixed, at -1
  relative phosphorylation: 0.867
F fixed, at -2
  relative phosphorylation: 1.67
F fixed, at -3
  relative phosphorylation: 0.85
F fixed, at -4
  relative phosphorylation: 0.912
F fixed, at -5
  relative phosphorylation: 0.967
G fixed, at +1
  relative phosphorylation: 0.768
G fixed, at +2
  relative phosphorylation: 1.06
G fixed, at +3
  relative phosphorylation: 0.998
G fixed, at +4
  relative phosphorylation: 0.976
G fixed, at -1
  relative phosphorylation: 0.694
G fixed, at -2
  relative phosphorylation: 0.932
G fixed, at -3
  relative phosphorylation: 1.02
G fixed, at -4
  relative phosphorylation: 1.08
G fixed, at -5
  relative phosphorylation: 1.16
H fixed, at +1
  relative phosphorylation: 0.895
H fixed, at +2
  relative phosphorylation: 0.953
H fixed, at +3
  relative phosphorylation: 1.05
H fixed, at +4
  relative phosphorylation: 0.964
H fixed, at -1
  relative phosphorylation: 1.7
H fixed, at -2
  relative phosphorylation: 0.88
H fixed, at -3
  relative phosphorylation: 1.17
H fixed, at -4
  relative phosphorylation: 0.932
H fixed, at -5
  relative phosphorylation: 1.03
I fixed, at +1
  relative phosphorylation: 1.01
I fixed, at +2
  relative phosphorylation: 1.15
I fixed, at +3
  relative phosphorylation: 0.61
I fixed, at +4
  relative phosphorylation: 0.762
I fixed, at -1
  relative phosphorylation: 0.732
I fixed, at -2
  relative phosphorylation: 0.735
I fixed, at -3
  relative phosphorylation: 0.828
I fixed, at -4
  relative phosphorylation: 0.863
I fixed, at -5
  relative phosphorylation: 0.892
K fixed, at +1
  relative phosphorylation: 0.804
K fixed, at +2
  relative phosphorylation: 0.947
K fixed, at +3
  relative phosphorylation: 0.767
K fixed, at +4
  relative phosphorylation: 1.04
K fixed, at -1
  relative phosphorylation: 0.909
K fixed, at -2
  relative phosphorylation: 0.871
K fixed, at -3
  relative phosphorylation: 0.788
K fixed, at -4
  relative phosphorylation: 0.831
K fixed, at -5
  relative phosphorylation: 0.861
L fixed, at +1
  relative phosphorylation: 0.81
L fixed, at +2
  relative phosphorylation: 0.735
L fixed, at +3
  relative phosphorylation: 0.717
L fixed, at +4
  relative phosphorylation: 0.662
L fixed, at -1
  relative phosphorylation: 0.874
L fixed, at -2
  relative phosphorylation: 0.765
L fixed, at -3
  relative phosphorylation: 0.707
L fixed, at -4
  relative phosphorylation: 0.891
L fixed, at -5
  relative phosphorylation: 0.82
M fixed, at +1
  relative phosphorylation: 1.04
M fixed, at +2
  relative phosphorylation: 0.841
M fixed, at +3
  relative phosphorylation: 0.724
M fixed, at +4
  relative phosphorylation: 0.723
M fixed, at -1
  relative phosphorylation: 0.829
M fixed, at -2
  relative phosphorylation: 0.738
M fixed, at -3
  relative phosphorylation: 0.792
M fixed, at -4
  relative phosphorylation: 0.887
M fixed, at -5
  relative phosphorylation: 0.817
N fixed, at +1
  relative phosphorylation: 0.888
N fixed, at +2
  relative phosphorylation: 0.905
N fixed, at +3
  relative phosphorylation: 0.721
N fixed, at +4
  relative phosphorylation: 0.911
N fixed, at -1
  relative phosphorylation: 1.19
N fixed, at -2
  relative phosphorylation: 0.889
N fixed, at -3
  relative phosphorylation: 1.04
N fixed, at -4
  relative phosphorylation: 0.984
N fixed, at -5
  relative phosphorylation: 0.94
P fixed, at +1
  relative phosphorylation: 0.564
P fixed, at +2
  relative phosphorylation: 0.73
P fixed, at +3
  relative phosphorylation: 0.997
P fixed, at +4
  relative phosphorylation: 1.48
P fixed, at -1
  relative phosphorylation: 0.986
P fixed, at -2
  relative phosphorylation: 0.838
P fixed, at -3
  relative phosphorylation: 0.977
P fixed, at -4
  relative phosphorylation: 1.19
P fixed, at -5
  relative phosphorylation: 1.02
Q fixed, at +1
  relative phosphorylation: 1.21
Q fixed, at +2
  relative phosphorylation: 0.74
Q fixed, at +3
  relative phosphorylation: 0.808
Q fixed, at +4
  relative phosphorylation: 1.01
Q fixed, at -1
  relative phosphorylation: 0.872
Q fixed, at -2
  relative phosphorylation: 0.737
Q fixed, at -3
  relative phosphorylation: 0.867
Q fixed, at -4
  relative phosphorylation: 0.85
Q fixed, at -5
  relative phosphorylation: 0.789
R fixed, at +1
  relative phosphorylation: 1.13
R fixed, at +2
  relative phosphorylation: 1.12
R fixed, at +3
  relative phosphorylation: 0.927
R fixed, at +4
  relative phosphorylation: 0.899
R fixed, at -1
  relative phosphorylation: 1.12
R fixed, at -2
  relative phosphorylation: 1.05
R fixed, at -3
  relative phosphorylation: 1.04
R fixed, at -4
  relative phosphorylation: 0.87
R fixed, at -5
  relative phosphorylation: 0.806
V fixed, at +1
  relative phosphorylation: 1.06
V fixed, at +2
  relative phosphorylation: 1.51
V fixed, at +3
  relative phosphorylation: 0.705
V fixed, at +4
  relative phosphorylation: 0.867
V fixed, at -1
  relative phosphorylation: 1.07
V fixed, at -2
  relative phosphorylation: 0.751
V fixed, at -3
  relative phosphorylation: 1.5
V fixed, at -4
  relative phosphorylation: 0.955
V fixed, at -5
  relative phosphorylation: 1.06
W fixed, at +1
  relative phosphorylation: 0.944
W fixed, at +2
  relative phosphorylation: 1.3
W fixed, at +3
  relative phosphorylation: 1.35
W fixed, at +4
  relative phosphorylation: 1.1
W fixed, at -1
  relative phosphorylation: 0.933
W fixed, at -2
  relative phosphorylation: 2.08
W fixed, at -3
  relative phosphorylation: 1.13
W fixed, at -4
  relative phosphorylation: 1.23
W fixed, at -5
  relative phosphorylation: 1.32
Y fixed, at +1
  relative phosphorylation: 0.898
Y fixed, at +2
  relative phosphorylation: 1.03
Y fixed, at +3
  relative phosphorylation: 1.06
Y fixed, at +4
  relative phosphorylation: 0.982
Y fixed, at -1
  relative phosphorylation: 1.55
Y fixed, at -2
  relative phosphorylation: 1.3
Y fixed, at -3
  relative phosphorylation: 0.969
Y fixed, at -4
  relative phosphorylation: 1.08
Y fixed, at -5
  relative phosphorylation: 1.13
pThr fixed, at +1
  relative phosphorylation: 2.07
pThr fixed, at +2
  relative phosphorylation: 0.82
pThr fixed, at +3
  relative phosphorylation: 1.27
pThr fixed, at +4
  relative phosphorylation: 2.47
pThr fixed, at -1
  relative phosphorylation: 0.587
pThr fixed, at -2
  relative phosphorylation: 1.43
pThr fixed, at -3
  relative phosphorylation: 2.65
pThr fixed, at -4
  relative phosphorylation: 1.75
pThr fixed, at -5
  relative phosphorylation: 1.36
pTyr fixed, at +1
  relative phosphorylation: 2.19
pTyr fixed, at +2
  relative phosphorylation: 0.868
pTyr fixed, at +3
  relative phosphorylation: 1.08
pTyr fixed, at +4
  relative phosphorylation: 1.37
pTyr fixed, at -1
  relative phosphorylation: 0.964
pTyr fixed, at -2
  relative phosphorylation: 2.77
pTyr fixed, at -3
  relative phosphorylation: 2.56
pTyr fixed, at -4
  relative phosphorylation: 2.29
pTyr fixed, at -5
  relative phosphorylation: 1.88
